Measurements reported in publication PMC3991817.
Like-named read-outs stand apart in the source and are kept apart here.

T1: Nkx2-1 (Rattus norvegicus (rat), UniProt P23441 1-372)
T1 sequence: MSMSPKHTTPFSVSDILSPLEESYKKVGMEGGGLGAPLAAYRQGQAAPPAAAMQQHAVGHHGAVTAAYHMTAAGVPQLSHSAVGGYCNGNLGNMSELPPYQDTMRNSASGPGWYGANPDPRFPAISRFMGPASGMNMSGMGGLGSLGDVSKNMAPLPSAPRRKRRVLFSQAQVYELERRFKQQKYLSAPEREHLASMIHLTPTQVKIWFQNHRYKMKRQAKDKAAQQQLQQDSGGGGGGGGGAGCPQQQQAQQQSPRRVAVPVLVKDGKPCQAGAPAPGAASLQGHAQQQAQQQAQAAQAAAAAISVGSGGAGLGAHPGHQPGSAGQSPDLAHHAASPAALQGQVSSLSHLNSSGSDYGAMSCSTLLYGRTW

B1: oligo B (dsDNA)
DNA 1: GAACCAGGGATTCTTCACACTTCATAGAGCAGCT
DNA 2: AGCTGCTCTATGAAGTGTGAAGAATCCCTGGTTC
B2: oligonucleotide CT (dsDNA)
DNA 1: CTGTCTAAGCTTGAGTGGGCATCA
DNA 2: TGATGCCCACTCAAGCTTAGACAG

Columns and labels:
Test in all cases: EMSA
[1] = molecular target: T2, Pax8b (Oncorhynchus mykiss (rainbow trout), UniProt W0S4A0 1-303)
[2] = molecular target: T3, Pax8a (Oncorhynchus mykiss (rainbow trout), UniProt W0S3W1 1-458)
[3] = molecular target: T1, Nkx2-1
[4] = molecular target: T2, Pax8b; remark: listed apart in the source
[5] = molecular target: T3, Pax8a; remark: listed apart in the source

Row | Binder | binding result [1] | binding result [2] | binding result [3] | binding result [4] | binding result [5]
1 | B1 | binds | binds | binds | – | –
2 | B2 | – | – | – | binds | binds
